From the supplement of paper PMC9112550, “Optimization of the antimicrobial peptide Bac7 by deep mutational scanning” (BMC Biology, 2022)

System: Escherichia coli TOP10
Experiment: shrunken log2 fold change of peptide-encoding DNA abundance (4.5 h post-induction vs induction); higher = less antimicrobial activity (less host growth inhibition)
Settings: time post-induction: 4.5 h; library: site-saturation at positions 5, 18, 19, 20
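Also: peptides expressed intracellularly from a pBAD plasmid library in pooled LB shake-flask culture, induced with 0.3% L-arabinose, DNA abundance read by NGS, three biological replicates, DESeq2 with apeglm shrinkage.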

| Sequence | shrunken log2 fold change |
| --- | --- |
| RRIRKRPPRLPRPRPRPGYHPRP | 0.0924 |
| RRIRYRPPRLPRPRPRPVSFPRP | -0.717 |
| RRIRERPPRLPRPRPRPIDVPRP | -0.0231 |
| RRIRFRPPRLPRPRPRPHKYPRP | -0.411 |
| RRIRTRPPRLPRPRPRPGMTPRP | -0.2 |
| RRIRPRPPRLPRPRPRPTTDPRP | 0.0167 |
| RRIRNRPPRLPRPRPRPSRGPRP | 0.513 |
| RRIRDRPPRLPRPRPRPHNDPRP | -0.201 |
| RRIRTRPPRLPRPRPRPDPMPRP | -0.0555 |
| RRIRIRPPRLPRPRPRPPVSPRP | -0.116 |
| RRIRMRPPRLPRPRPRPKFHPRP | -0.174 |
| RRIRYRPPRLPRPRPRPVFRPRP | -0.258 |
| RRIRCRPPRLPRPRPRPLGIPRP | -0.149 |
| RRIRIRPPRLPRPRPRPALNPRP | -0.484 |
| RRIRIRPPRLPRPRPRPEHFPRP | -0.0163 |
| RRIRIRPPRLPRPRPRPRVHPRP | -0.0227 |
| RRIRPRPPRLPRPRPRPVQDPRP | -0.0784 |
| RRIRKRPPRLPRPRPRPELKPRP | 0.978 |
| RRIRWRPPRLPRPRPRPTPPPRP | 0.639 |
| RRIRYRPPRLPRPRPRPLKSPRP | -0.365 |
| RRIRFRPPRLPRPRPRPRISPRP | -0.0207 |
| RRIRLRPPRLPRPRPRPNDHPRP | -0.43 |
| RRIRTRPPRLPRPRPRPHWPPRP | -0.078 |
| RRIRRRPPRLPRPRPRPCTRPRP | 0.0341 |
| RRIRWRPPRLPRPRPRPQEFPRP | 0.00161 |

| Sequence | shrunken log2 fold change |
| --- | --- |
| RRIRMRPPRLPRPRPRPYAEPRP | 0.0571 |
| RRIRCRPPRLPRPRPRPNTAPRP | -0.22 |
| RRIRLRPPRLPRPRPRPTPEPRP | 0.181 |
| RRIRGRPPRLPRPRPRPRCFPRP | 0.698 |
| RRIRQRPPRLPRPRPRPGKLPRP | -0.0396 |
| RRIRIRPPRLPRPRPRPHMNPRP | -0.845 |
| RRIRCRPPRLPRPRPRPQCAPRP | 0.166 |
| RRIRPRPPRLPRPRPRPRMGPRP | 0.38 |
| RRIRGRPPRLPRPRPRPGVMPRP | 1.05 |
| RRIRRRPPRLPRPRPRPRILPRP | -0.143 |
| RRIRWRPPRLPRPRPRPLMQPRP | 0.217 |
| RRIRLRPPRLPRPRPRPMTQPRP | 0.162 |
| RRIRRRPPRLPRPRPRPHSDPRP | -0.0198 |
| RRIRMRPPRLPRPRPRPIIPPRP | 0.000609 |
| RRIRHRPPRLPRPRPRPNIWPRP | 0.0229 |
| RRIRRRPPRLPRPRPRPEYEPRP | -0.022 |
| RRIRSRPPRLPRPRPRPPTLPRP | 0.0631 |
| RRIRWRPPRLPRPRPRPAKYPRP | -0.183 |
| RRIRRRPPRLPRPRPRPPGAPRP | 0.972 |
| RRIRLRPPRLPRPRPRPPGYPRP | -0.119 |
| RRIRKRPPRLPRPRPRPPCKPRP | -0.242 |
| RRIRLRPPRLPRPRPRPGTVPRP | -0.0516 |
| RRIRIRPPRLPRPRPRPDSCPRP | -0.972 |
| RRIRIRPPRLPRPRPRPIFMPRP | -0.376 |
| RRIRTRPPRLPRPRPRPMGVPRP | -0.174 |

| Sequence | shrunken log2 fold change |
| --- | --- |
| RRIRTRPPRLPRPRPRPYMMPRP | 0.0264 |
| RRIRDRPPRLPRPRPRPQCEPRP | 0.0364 |
| RRIRMRPPRLPRPRPRPKETPRP | 0.201 |
| RRIRKRPPRLPRPRPRPWYEPRP | -0.0672 |
| RRIRYRPPRLPRPRPRPCCLPRP | -0.203 |
| RRIRKRPPRLPRPRPRPNHKPRP | -0.203 |
| RRIRERPPRLPRPRPRPNDQPRP | 0.0572 |
| RRIRPRPPRLPRPRPRPMMKPRP | -0.173 |
| RRIRERPPRLPRPRPRPIKSPRP | -0.611 |
| RRIRGRPPRLPRPRPRPLSFPRP | 0.121 |
| RRIRCRPPRLPRPRPRPNHWPRP | -0.0209 |
| RRIRRRPPRLPRPRPRPGQVPRP | 0.239 |
| RRIRMRPPRLPRPRPRPVDNPRP | 0.113 |
| RRIRVRPPRLPRPRPRPTSEPRP | 0.066 |
| RRIRTRPPRLPRPRPRPMGIPRP | 0.049 |
| RRIRCRPPRLPRPRPRPLPDPRP | 0.33 |
| RRIRCRPPRLPRPRPRPKEQPRP | 0.0429 |
| RRIRARPPRLPRPRPRPEAQPRP | 1.66 |
| RRIRLRPPRLPRPRPRPYYRPRP | -0.043 |
| RRIRYRPPRLPRPRPRPYENPRP | 0.0075 |
| RRIRQRPPRLPRPRPRPRLSPRP | 0.0751 |
| RRIRRRPPRLPRPRPRPCNIPRP | -0.373 |
| RRIRYRPPRLPRPRPRPWVVPRP | -0.264 |
| RRIRNRPPRLPRPRPRPWPDPRP | 0.646 |
| RRIRQRPPRLPRPRPRPDHWPRP | -0.368 |

| Sequence | shrunken log2 fold change |
| --- | --- |
| RRIRYRPPRLPRPRPRPNIDPRP | -1.61 |
| RRIRMRPPRLPRPRPRPLPAPRP | 2.13 |
| RRIRWRPPRLPRPRPRPNWYPRP | -0.372 |
| RRIRCRPPRLPRPRPRPLCVPRP | -0.481 |
| RRIRHRPPRLPRPRPRPDLAPRP | 0.0081 |
| RRIRVRPPRLPRPRPRPKSQPRP | 0.309 |
| RRIRTRPPRLPRPRPRPSHSPRP | -0.399 |
| RRIRDRPPRLPRPRPRPHPSPRP | 0.0703 |
| RRIRVRPPRLPRPRPRPGSHPRP | 0.105 |
| RRIRRRPPRLPRPRPRPPMDPRP | 0.385 |
| RRIRTRPPRLPRPRPRPCARPRP | -0.187 |
| RRIRDRPPRLPRPRPRPDHTPRP | 0.0303 |
| RRIRVRPPRLPRPRPRPLGKPRP | 0.0149 |
| RRIRERPPRLPRPRPRPSMCPRP | -0.409 |
| RRIRARPPRLPRPRPRPLLKPRP | 0.0989 |
| RRIRLRPPRLPRPRPRPQWRPRP | 0.087 |
| RRIRIRPPRLPRPRPRPWRMPRP | -0.473 |
| RRIRARPPRLPRPRPRPLFLPRP | 0.0297 |
| RRIRKRPPRLPRPRPRPIIIPRP | -0.104 |
| RRIRSRPPRLPRPRPRPIGAPRP | 0.058 |
| RRIRTRPPRLPRPRPRPEGVPRP | 0.122 |
| RRIRFRPPRLPRPRPRPQMVPRP | -0.0194 |
| RRIRARPPRLPRPRPRPQDFPRP | -0.0122 |
| RRIRDRPPRLPRPRPRPLISPRP | 0.116 |
| RRIRQRPPRLPRPRPRPCNIPRP | -0.646 |

| Sequence | shrunken log2 fold change |
| --- | --- |
| RRIRWRPPRLPRPRPRPWNWPRP | 0.173 |
| RRIRRRPPRLPRPRPRPHRWPRP | 0.409 |
| RRIRNRPPRLPRPRPRPHYRPRP | -0.0488 |
| RRIRARPPRLPRPRPRPVEMPRP | 0.196 |
| RRIRARPPRLPRPRPRPRPSPRP | 0.622 |
| RRIRERPPRLPRPRPRPAMCPRP | -0.456 |
| RRIRIRPPRLPRPRPRPMDHPRP | -0.0898 |
| RRIRYRPPRLPRPRPRPEWWPRP | -0.0484 |
| RRIRYRPPRLPRPRPRPRERPRP | 0.126 |
| RRIRIRPPRLPRPRPRPCKYPRP | -1.03 |
| RRIRWRPPRLPRPRPRPINCPRP | -0.889 |
| RRIRKRPPRLPRPRPRPYVNPRP | -0.526 |
| RRIRYRPPRLPRPRPRPWSEPRP | -0.117 |
| RRIRPRPPRLPRPRPRPLPEPRP | 0.935 |
| RRIRRRPPRLPRPRPRPYVLPRP | 0.00941 |
| RRIRHRPPRLPRPRPRPQMYPRP | -0.0219 |
| RRIRMRPPRLPRPRPRPERFPRP | 0.0214 |
| RRIRDRPPRLPRPRPRPKFKPRP | -0.0689 |
| RRIRGRPPRLPRPRPRPDHQPRP | 0.12 |
| RRIRKRPPRLPRPRPRPCWNPRP | -0.228 |
| RRIRCRPPRLPRPRPRPWQIPRP | -0.153 |
| RRIRARPPRLPRPRPRPLPVPRP | 0.174 |
| RRIRKRPPRLPRPRPRPHDQPRP | 0.0273 |
| RRIRFRPPRLPRPRPRPCCSPRP | -0.139 |
| RRIRVRPPRLPRPRPRPIFAPRP | 0.231 |
